Assay results as given in US20080292632A1 (US Dept. of Health and Human Services, published 2008).

Assays:
Experiment in all cases: FACS on transfected 293T (summary with IRTA-Fc ELISA, FIG. 2A and B)
[1] = biological target: T1, IRTA5, full-length, on transfected 293T cells (human, UniProt Q96LA6 17-429)
T1 sequence: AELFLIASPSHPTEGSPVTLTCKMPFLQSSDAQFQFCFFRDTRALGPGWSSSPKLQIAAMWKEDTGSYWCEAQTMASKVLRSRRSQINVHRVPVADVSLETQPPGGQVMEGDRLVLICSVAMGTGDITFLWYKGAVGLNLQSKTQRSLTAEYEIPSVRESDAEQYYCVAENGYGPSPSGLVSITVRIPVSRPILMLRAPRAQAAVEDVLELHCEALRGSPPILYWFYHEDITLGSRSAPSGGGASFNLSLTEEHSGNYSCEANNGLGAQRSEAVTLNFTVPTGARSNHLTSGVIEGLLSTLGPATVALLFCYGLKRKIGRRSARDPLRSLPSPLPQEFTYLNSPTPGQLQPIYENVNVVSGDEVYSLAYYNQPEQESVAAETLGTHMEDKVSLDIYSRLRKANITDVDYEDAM
Procedure: (§1) FIGS. 2A-B are a bar graph and a set of plots showing the cross-reactivity of the anti-IRTA2 MAbs to other IRTA family members. FIG. 2A is a bar graph of the results from an ELISA of anti-IRTA2 MAbs to various Fc-fusion proteins. Each Fc-fusion protein indicated on the top of the column was captured on ELISA plates using secondary antibody (goat anti-human IgG). After washing, 100 ng/50 μl/well of MAbs were added, followed by HRP-labeled goat anti-mouse IgG and TMBZ substrate. The signals in ELISA were normalized for the amounts of each Fc-fusion protein on the plates using HRP-goat anti-human Fc. The controls are MAbs 9E10 (anti-myc tag, IgG1), BerH2 (anti-CD30, IgG1), T408 (anti-CD30, IgG2a), T420 (anti-CD30, IgG2b) and HRP-goat anti-human Fc (1/2400 dilution). […] Two days after transfection, the cells were harvested and incubated with 200 ng/100 μl of each MAb, followed by PE-conjugated goat anti-mouse IgG F(ab′)2. […] In the positive control panels, the MAbs cross-reactive to other IRTAs were used. They are F26 (anti-IRTA1 and anti-IRTA2, IgG2b), F109 (anti-IRTA3, IgG2b), F47 (anti-IRTA4, IgG2a), and F69 (anti-IRTA5, IgG2a). BerH2 (anti-CD30, IgG1) was also used. “+” indicates more than 1.5-fold than that of the control; “++” indicates more than 10-fold mean fluorescence intensity than that of the negative control.

[2] = biological target: T2, IRTA1, full-length, on transfected 293T cells (human, UniProt Q96PJ5 20-515)
T2 sequence: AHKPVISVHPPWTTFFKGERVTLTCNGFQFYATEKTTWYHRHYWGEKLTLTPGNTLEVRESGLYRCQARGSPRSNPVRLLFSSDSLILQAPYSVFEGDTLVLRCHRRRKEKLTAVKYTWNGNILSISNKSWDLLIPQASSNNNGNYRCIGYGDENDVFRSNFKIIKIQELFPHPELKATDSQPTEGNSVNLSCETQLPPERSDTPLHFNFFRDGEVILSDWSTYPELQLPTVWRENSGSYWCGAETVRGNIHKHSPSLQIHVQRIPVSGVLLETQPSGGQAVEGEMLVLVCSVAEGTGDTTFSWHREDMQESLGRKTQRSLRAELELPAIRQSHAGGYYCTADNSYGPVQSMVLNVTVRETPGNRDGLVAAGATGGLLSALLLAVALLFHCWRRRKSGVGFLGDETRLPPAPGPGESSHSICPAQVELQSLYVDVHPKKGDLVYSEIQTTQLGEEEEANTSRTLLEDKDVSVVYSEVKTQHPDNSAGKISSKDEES
Procedure: as §1

[3] = biological target: T3, IRTA4, full-length, on transfected 293T cells (human, UniProt Q96LA5 20-508)
T3 sequence: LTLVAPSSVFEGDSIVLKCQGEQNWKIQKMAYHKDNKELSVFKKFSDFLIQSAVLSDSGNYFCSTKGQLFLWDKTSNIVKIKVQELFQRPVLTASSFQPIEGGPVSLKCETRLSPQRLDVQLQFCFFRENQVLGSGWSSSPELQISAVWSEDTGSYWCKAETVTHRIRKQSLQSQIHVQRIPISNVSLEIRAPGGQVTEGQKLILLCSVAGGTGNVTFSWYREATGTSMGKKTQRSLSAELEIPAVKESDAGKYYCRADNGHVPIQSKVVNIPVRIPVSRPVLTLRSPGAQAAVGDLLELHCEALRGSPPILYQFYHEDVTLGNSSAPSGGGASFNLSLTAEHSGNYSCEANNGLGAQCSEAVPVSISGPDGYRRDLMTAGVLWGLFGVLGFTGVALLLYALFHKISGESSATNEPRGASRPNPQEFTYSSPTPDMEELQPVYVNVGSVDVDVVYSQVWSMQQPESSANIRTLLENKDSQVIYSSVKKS
Procedure: as §1

binding result [1]: no binding
binding result [2]: no binding
binding result [3]: no binding
B1: F25 (antibody, IgG2a, V domains shown)
VH: EVQLQQSGPELVKPGTSVKMSCKASGYSFTGYFMNWMMQNHGKSLEWIGRINLYNGDTFYNQKFKDKATLTVDKSSNTVHMEFRSLASEDSAVYYCASSLYYFDYWGQGTTFTVSS
VL: DIVMTQSHKFMSTSVGDRVNITCKASQDVGTNVAWYQQKPGQSPKLLIYWASTRQTGVPDRFTGSGSGTDFTLTISNVQSEDLSDYFCQQYSSYPLTFGAGTKLELKR
notes: mouse hybridoma MAb, IgG2a, kappa; also called MAb F25; biotin-MAb F25
